For assay [1], the target named is human melanocortin 1 receptor (human) (UniProt Q01726).
Assay [2] has as its target human melanocortin 3 receptor (human) (UniProt P41968).
Assay [3] deals with human melanocortin 4 receptor (human) (UniProt P32245).
Assay [4] deals with human melanocortin 5 receptor (human) (UniProt P33032).
In assay [5] the target is mouse melanocortin 1 receptor (mouse) (UniProt Q01727).
In assay [6] the target is mouse melanocortin 3 receptor (mouse) (UniProt P33033).
Assay [7] has as its target mouse melanocortin 4 receptor (mouse) (UniProt P56450).
Assay [8] addresses mouse melanocortin 5 receptor (mouse) (UniProt P41149).

This note sets out measurements from paper PMC6007841.

human melanocortin 3 receptor (human), sequence (P41968 whole entry): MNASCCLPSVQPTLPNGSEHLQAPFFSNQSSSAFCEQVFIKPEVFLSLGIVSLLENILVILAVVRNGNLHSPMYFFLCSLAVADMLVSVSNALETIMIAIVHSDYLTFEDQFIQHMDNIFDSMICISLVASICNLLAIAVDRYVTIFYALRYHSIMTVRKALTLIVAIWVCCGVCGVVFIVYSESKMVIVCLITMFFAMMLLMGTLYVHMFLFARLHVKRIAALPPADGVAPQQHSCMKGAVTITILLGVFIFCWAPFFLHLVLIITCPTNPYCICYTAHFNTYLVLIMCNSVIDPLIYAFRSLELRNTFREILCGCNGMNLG
human melanocortin 1 receptor (human), sequence (Q01726 whole entry): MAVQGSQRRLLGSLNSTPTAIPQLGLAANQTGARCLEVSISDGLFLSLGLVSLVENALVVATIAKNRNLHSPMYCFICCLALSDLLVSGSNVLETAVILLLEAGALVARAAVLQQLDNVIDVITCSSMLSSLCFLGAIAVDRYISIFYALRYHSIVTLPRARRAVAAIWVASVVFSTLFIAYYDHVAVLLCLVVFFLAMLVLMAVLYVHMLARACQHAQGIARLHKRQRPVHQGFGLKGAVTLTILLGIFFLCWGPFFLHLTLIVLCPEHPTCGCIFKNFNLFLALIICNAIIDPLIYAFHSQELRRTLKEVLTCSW
mouse melanocortin 4 receptor (mouse), sequence (P56450 whole entry): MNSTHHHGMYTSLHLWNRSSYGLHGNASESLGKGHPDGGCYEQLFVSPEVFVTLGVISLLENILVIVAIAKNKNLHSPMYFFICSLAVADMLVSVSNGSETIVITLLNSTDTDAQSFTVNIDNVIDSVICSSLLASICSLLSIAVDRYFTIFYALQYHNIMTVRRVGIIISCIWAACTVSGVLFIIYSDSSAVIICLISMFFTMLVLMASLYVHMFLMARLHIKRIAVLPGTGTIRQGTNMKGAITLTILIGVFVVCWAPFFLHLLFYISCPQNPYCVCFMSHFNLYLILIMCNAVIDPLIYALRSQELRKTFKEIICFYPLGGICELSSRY
human melanocortin 5 receptor (human), sequence (P33032 whole entry): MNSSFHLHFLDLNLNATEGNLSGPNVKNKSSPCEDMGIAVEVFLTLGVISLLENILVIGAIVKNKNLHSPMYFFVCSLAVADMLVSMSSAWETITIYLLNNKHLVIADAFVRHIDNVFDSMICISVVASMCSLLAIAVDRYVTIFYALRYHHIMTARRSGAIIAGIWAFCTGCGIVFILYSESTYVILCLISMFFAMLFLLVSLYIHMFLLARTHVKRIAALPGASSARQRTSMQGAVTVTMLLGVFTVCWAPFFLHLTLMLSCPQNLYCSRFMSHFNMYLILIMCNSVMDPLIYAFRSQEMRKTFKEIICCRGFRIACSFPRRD
mouse melanocortin 3 receptor (mouse), sequence (P33033 whole entry): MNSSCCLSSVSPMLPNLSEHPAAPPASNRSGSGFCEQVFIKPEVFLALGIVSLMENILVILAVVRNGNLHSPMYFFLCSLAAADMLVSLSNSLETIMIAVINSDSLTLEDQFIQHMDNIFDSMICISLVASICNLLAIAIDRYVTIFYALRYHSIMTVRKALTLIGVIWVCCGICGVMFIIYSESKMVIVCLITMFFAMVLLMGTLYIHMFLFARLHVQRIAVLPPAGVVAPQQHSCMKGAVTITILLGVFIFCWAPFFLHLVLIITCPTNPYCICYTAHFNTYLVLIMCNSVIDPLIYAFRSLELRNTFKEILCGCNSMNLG
mouse melanocortin 5 receptor (mouse), sequence (P41149 whole entry): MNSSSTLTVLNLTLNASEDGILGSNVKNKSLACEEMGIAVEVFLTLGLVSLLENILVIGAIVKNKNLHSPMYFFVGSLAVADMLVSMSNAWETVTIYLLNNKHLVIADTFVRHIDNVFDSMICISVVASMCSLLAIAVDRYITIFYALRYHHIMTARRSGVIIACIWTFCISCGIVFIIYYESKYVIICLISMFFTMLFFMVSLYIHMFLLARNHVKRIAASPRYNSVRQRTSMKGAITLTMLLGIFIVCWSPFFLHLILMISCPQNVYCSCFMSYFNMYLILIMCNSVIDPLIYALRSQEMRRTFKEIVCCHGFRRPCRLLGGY
mouse melanocortin 1 receptor (mouse), sequence (Q01727 whole entry): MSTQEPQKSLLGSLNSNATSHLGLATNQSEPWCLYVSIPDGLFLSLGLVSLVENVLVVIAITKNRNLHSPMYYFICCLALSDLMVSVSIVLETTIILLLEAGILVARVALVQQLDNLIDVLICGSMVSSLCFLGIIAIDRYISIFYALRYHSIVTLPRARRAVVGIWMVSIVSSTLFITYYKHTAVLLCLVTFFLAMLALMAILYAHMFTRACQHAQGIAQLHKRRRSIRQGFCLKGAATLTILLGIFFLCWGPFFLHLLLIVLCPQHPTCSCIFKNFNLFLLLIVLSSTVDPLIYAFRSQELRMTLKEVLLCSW
human melanocortin 4 receptor (human), sequence (P32245 whole entry): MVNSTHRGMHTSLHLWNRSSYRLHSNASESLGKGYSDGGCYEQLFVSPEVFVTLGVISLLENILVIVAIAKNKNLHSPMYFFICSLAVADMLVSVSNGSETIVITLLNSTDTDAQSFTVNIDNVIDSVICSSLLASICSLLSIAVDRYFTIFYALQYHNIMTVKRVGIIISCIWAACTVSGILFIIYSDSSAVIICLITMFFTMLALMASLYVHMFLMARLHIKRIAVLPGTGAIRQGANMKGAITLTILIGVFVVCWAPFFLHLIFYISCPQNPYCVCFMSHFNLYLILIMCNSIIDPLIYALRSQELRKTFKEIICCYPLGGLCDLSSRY

For NDP-MSH (peptide), the cAMP agonist EC50 (AlphaScreen cAMP assay, HEK293 cells expressing the receptor) in assay [1] is 0.07 nM; in assay [2], 0.3 nM; in assay [3] it was 0.13 nM; in assay [4] it was 0.4 nM; in assay [5], 0.04 nM; in assay [6] it was 0.33 nM. The cAMP agonist EC50 (AlphaScreen cAMP assay, HEK293 cells expressing the receptor) is 0.87 nM in assay [7] and 0.41 nM in assay [8].
